Tests used:
[1] = test system: human A549 tumor cells (non-small cell lung cancer); assay: Growth of human A549 tumors implanted in humanized Dll4 SCID mice; format: in vivo; conditions: REGN421 2 mg/kg sc (6 mg/kg total)
Experimental: Tumor growth delay, TGD, was assessed as the difference in days between treated (T) versus control (C) tumors when each cohort reached a specified tumor size. The predetermined tumor size for this experiment was 600 mm^3.
Each mouse was implanted subcutaneously (sc) with 5×10^6 human A549 tumor cells (non-small cell lung cancer or “NSCLC”). […] A total of 36 mice were divided into 6 groups (n=6 per cohort). The first group was treated sc with hFc at 2 mg/kg; the second group was treated sc with REGN421 at 2 mg/kg; the third and fourth groups were treated ip with cisplatin at 2.5 and 4.5 mg/kg, respectively; the fifth group was treated sc with REGN421 at 2 mg/kg and ip with cisplatin at 2.5 mg/kg; and the sixth group was treated sc with REGN421 at 2 mg/kg and ip with cisplatin at 4.5 mg/kg. REGN421 was administered every 3-4 days starting on day 29 and mice received three doses total. Cisplatin was administered every 24 hours starting on day 29 and mice received two doses total.
To assess the effects of REGN421 and cisplatin as single agents or in combination we measured tumor size (volume), beginning three days before the initial REGN421 treatment, on the day of each agent treatment (days 29, 30, 33, 36) and thereafter every 3-4 days until tumors reached ˜600 mm^3 in size.

TOV-112D cells = assay: TOV-112D ovarian xenograft (subcutaneous) tumor growth inhibition; format: in vivo, human
Experimental: (§1) Ovarian tumor xenograft cells were implanted into humanized Dll4 SCID mice or vendor SCID mice (i.e., SCID mice expressing native murine Dll4). After implantation, mice were treated with REGN421 (anti-human Dll4 antibody, binds to human Dll4), mDll4Ab1 (anti-murine Dll4 antibody, binds to murine Dll4), or a human Fc domain control protein. In one study, mice were treated with VEGF-Trap, mDll4Ab1 or VEGF-Trap plus mDll4Ab1. TOV-112D cells (5×10^6) were implanted subcutaneously into the right flank of humanized Dll4 (n=4) or vendor SCID mice (n=7). Treatment with REGN421 (2.5 mg/kg, 1×/week) or mDll4Ab1 (5 mg/kg, 1×/week) vs. hFc control was initiated one week after tumor cell implantation. Animals were treated for 2 to 3 weeks. A2780 cells (2×10^6) were implanted intraperitoneally into humanized Dll4 or vendor SCID mice (n=4-5). Treatment with REGN421 (2.5 mg/kg, 1×/week) or mDll4Ab1 (5 mg/kg, 1×/week) vs. hFc control was initiated one week after tumor cell implantation. For the A2780 combination study, simultaneous treatment with mDll4Ab1 (5 mg/kg, 1×/week) and VEGF-Trap (10 mg/kg, 2×/week) was initiated one week after tumor cell implantation. A VEGF-Trap single treatment arm was included in this study. Animals bearing A2780 tumors were treated for 4-5 weeks. SKOV-3 cells (5×10^6) in matrigel were implanted subcutaneously and tumor-bearing animals (n=10) were dosed with REGN421 (2.5 mg/kg) and mDll4Ab1 (5 mg/kg) once weekly. OVCAR-3 cells (1×10^7) were implanted subcutaneously into the right flank of vendor SCID mice (n=7). Treatment with mDll4Ab1 (5 mg/kg 1×/week) vs. hFc control was initiated 66 days after tumor cell implantation. Animals were treated for a total of 5 weeks. Tumor growth inhibition (TGI) was measured as detailed above.

SKOV-3 cells = assay: SKOV-3 ovarian xenograft (subcutaneous) tumor growth inhibition; format: in vivo, human; conditions: Humanized Dll4 SCID mice; REGN421 2.5 mg/kg once weekly; 2.5 mg/kg
Experimental: as §1, with “SKOV-3 cells (5×10^6) in matrigel were implanted subcutaneously and tumor-bearing animals (n=10) were dosed with REGN421 (2.5 mg/kg) and mDll4Ab1 (5 mg/kg) once weekly. OVCAR-3 cells (1×10^7) were implanted subcutaneously into the right flank of vendor SCID mice (n=7). Treatment with mDll4Ab1 (5 mg/kg 1×/week) vs. hFc control was initiated 66 days after tumor cell implantation. Animals were treated for a total of 5 weeks.” left out

B1: REGN421 (antibody, V domains shown)
VH: QVQLVESGGGVVQPGRSLRLSCAASGFTFSSYGMHWVRQAPGKGLEWVSFLWYDGTNKNYVESVKGRFTISRDNSKNMLYLEMNSLRAEDTAVYYCARDHDFRSGYEGWFDPWGQGTLVTVSS
VL: EIVLTQSPATLSLSPGERATLSCRASQSVSSYLAWYQQKPGQAPRLLIYDASNRATGIPARFSGSGSGTDFTLTISSLEPEDFAVYYCQHRSNWPPTFGGGTKVEIK
[1]
  TGD: 8 days
  TGI (%) at Day 57: 54%
TOV-112D cells; Humanized Dll4 SCID mice, REGN421 2.5 mg/kg 1x/week
  % TGI: 86%
TOV-112D cells; SCID mice (native murine Dll4), REGN421 2.5 mg/kg or mDll4Ab1 5 mg/kg 1x/week
  % TGI: 0%
TOV-112D cells; vendor SCID mice
  anti-tumor activity (in words): did not exhibit any appreciable anti-tumor activity
SKOV-3 cells
  % TGI: 61%
